# Test results taken from patent publication US20170355774A1 (Regeneron, published 2017).
# T1: human GITR (amino acids M1-V241, NCBI Accession #NP_004186.1) expressed on cells (human, UniProt Q9Y5U5 26-241)
# T1 sequence: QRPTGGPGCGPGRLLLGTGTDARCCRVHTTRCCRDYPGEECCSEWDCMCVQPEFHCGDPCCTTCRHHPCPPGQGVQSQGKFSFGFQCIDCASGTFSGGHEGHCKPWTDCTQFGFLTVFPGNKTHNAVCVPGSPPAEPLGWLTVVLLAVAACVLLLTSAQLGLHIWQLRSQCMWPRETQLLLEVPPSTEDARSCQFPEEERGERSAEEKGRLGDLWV
# T2: mfGITR.mmh (Macaca fasicularis)
# T2 construct: soluble monomeric construct; also called Macaca fasicularis (mf) GITR.mmh; cynomolgus GITR protein
# T2 chain: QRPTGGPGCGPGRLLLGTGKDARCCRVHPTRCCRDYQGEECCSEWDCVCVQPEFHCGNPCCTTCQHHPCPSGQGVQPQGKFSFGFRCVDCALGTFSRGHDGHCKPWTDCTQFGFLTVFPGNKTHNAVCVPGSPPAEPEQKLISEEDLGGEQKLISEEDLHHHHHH
# T3: hGITR.mmh (human)
# T3 construct: soluble monomeric construct; also called human (h) GITR.mmh; monomeric human GITR
# T3 chain: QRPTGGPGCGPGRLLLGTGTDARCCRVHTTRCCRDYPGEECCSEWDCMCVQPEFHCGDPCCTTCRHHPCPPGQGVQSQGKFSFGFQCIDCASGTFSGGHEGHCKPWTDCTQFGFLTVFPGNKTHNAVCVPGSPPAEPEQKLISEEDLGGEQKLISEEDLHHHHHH
# T4: hGITR.mFc (human)
# T4 construct: soluble dimeric construct with mouse Fc; also called dimeric human GITR
# T4 chain: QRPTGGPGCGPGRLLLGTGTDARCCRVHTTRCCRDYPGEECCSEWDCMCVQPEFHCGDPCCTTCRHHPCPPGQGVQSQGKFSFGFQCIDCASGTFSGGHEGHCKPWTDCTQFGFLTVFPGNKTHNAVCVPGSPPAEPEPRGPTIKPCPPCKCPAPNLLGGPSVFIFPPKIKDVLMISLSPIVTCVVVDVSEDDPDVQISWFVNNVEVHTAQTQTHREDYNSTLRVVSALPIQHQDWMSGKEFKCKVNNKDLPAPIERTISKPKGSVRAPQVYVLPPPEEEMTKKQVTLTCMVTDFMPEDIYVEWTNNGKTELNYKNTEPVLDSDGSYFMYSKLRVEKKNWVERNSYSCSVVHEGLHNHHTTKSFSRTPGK
# Key:
# [1] = biological target: T1, human GITR (amino acids M1-V241, NCBI …); assay: cell-based or functional assay
# mfGITR.mmh = biological target: T2, mfGITR.mmh; assay: SPR 37C, mAb capture
# Experimental: (§1) (Table 3). […] GITR proteins were injected over the sensor surface at a flow rate of 30 μL/minute. All Biacore binding studies were performed in a buffer composed of 0.01M HEPES pH 7.4, 0.15M NaCl, 3 mM EDTA, 0.05% v/v Surfactant P20 (HBS-ET running buffer). Antibody-reagent association was monitored for 4 minutes while dissociation in HBS-ET running buffer (10 mM HEPES, 150 mM NaCl, 3 mM EDTA, 0.05% (v/v) Surfactant P20, pH 7.4) was monitored for 10 minutes. Kinetic association (kₐ) and dissociation (kd) rate constants were determined by fitting the real-time sensorgrams to a 1:1 binding model using Scrubber 2.0c curve fitting software. Binding dissociation equilibrium constants (KD) and dissociative half-lives (t ½) were calculated from the kinetic rate constants as: KD [M]=kd/kₐ; and t_{1/2}(min)=(ln 2/(60*kd). Results are summarized in Table 3.
# hGITR.mmh = biological target: T3, hGITR.mmh; assay: SPR 37C, mAb capture
# Experimental: as §1
# hGITR.mFc = biological target: T4, hGITR.mFc; assay: SPR 37C, mAb capture
# Experimental: as §1
# [2] = biological target: T1, human GITR (amino acids M1-V241, NCBI …); assay: cell-based or functional assay; remark: listed apart in the source
# [3] = biological target: T1, human GITR (amino acids M1-V241, NCBI …); assay: cell-based or functional assay; remark: listed apart in the source
# [4] = biological target: T1, human GITR (amino acids M1-V241, NCBI …); assay: ECL cell binding, hGITR/HEK293-D9
# Experimental: Nonspecific binding sites were blocked with 2% BSA (w/v)+PBS for 1 h at room temperature (RT). Next, serial dilutions of anti-GITR antibodies, ranging from 1.7 pM to 100 nM, were added to cells for 1 h at RT. Plates were then washed to remove unbound antibodies (AquaMax2000 plate washer, MSD Analytical Technologies) and plate-bound antibodies were detected with a SULFO-TAG™ conjugated anti-human kappa light chain IgG antibody (Jackson Immunoresearch) for 1 h at RT.
# Following washes, luminescent signals were recorded with a SECTOR Imager 6000 (MSD) instrument. Direct binding signals (relative light units, RLU) were analyzed as a function of the antibody concentration and data were fitted with a sigmoidal (four-parameter logistic) dose-response model using GraphPad Prism™ software. […] The signal detected with 100 nM antibody binding to the hGITR expressing cells versus parental cells was recorded as an indication of intensity and specificity of GITR binding.
# [5] = biological target: T1, human GITR (amino acids M1-V241, NCBI …); assay: cell-based or functional assay; remark: listed apart in the source
"fold activation, T-cell proliferation, plate-bound Ab 10.6 nM, donor 1 [1]","fold activation, T-cell proliferation, plate-bound Ab 10.6 nM, donor 2 [1]","fold activation, T-cell proliferation, plate-bound Ab 10.6 nM, donor 3 [1]","fold activation, T-cell proliferation, plate-bound Ab 10.6 nM, donor 4 [1]","fold activation, T-cell proliferation, plate-bound Ab 10.6 nM, donor 5 [1]","fold activation, T-cell proliferation, plate-bound Ab 10.6 nM, donor 6 [1]","fold activation, T-cell proliferation, plate-bound Ab 10.6 nM, donor 7 [1]","fold activation, T-cell proliferation, plate-bound Ab 10.6 nM, donor 8 [1]","fold activation, T-cell proliferation, plate-bound Ab 10.6 nM, mean [1]",Kd (mfGITR.mmh),koff (mfGITR.mmh),kon (mfGITR.mmh),t½ (mfGITR.mmh),Kd (hGITR.mmh),koff (hGITR.mmh),kon (hGITR.mmh),t½ (hGITR.mmh),Kd (hGITR.mFc),koff (hGITR.mFc),kon (hGITR.mFc),Binder,other results
6 fold,1 fold,1 fold,2 fold,1 fold,3 fold,2 fold,1 fold,2 fold,155 nM,0.0205 s⁻¹,133000 M⁻¹ s⁻¹,0.6 min,52.4 nM,0.0166 s⁻¹,317000 M⁻¹ s⁻¹,0.7 min,0.427 nM,0.000338 s⁻¹,791000 M⁻¹ s⁻¹,"H4H14525P (antibody, human IgG4, V domains shown, human IgG4 (H4H)) VH: QVQLVESGGGVVQPGRSLRLSCAASGFTFSSYGMHWVRQAPGKGLEWVAVIWYVGSNKYYGESVKGRFTISRDNSKNTLYLQMNSLRDEDTAIYYCARGGQLGSFYYYGMDVWGQGTTVTVSS VL: DIQMTQSPSSLSASVGDRVTITCRASQGIRNDLGWYQQKPGKAPKRLIYDVSSLQSGVPSRFSGSGSGTEFTLTISSLQPEDLATYYCLQHNSYPWTFGQGTKVEIK","t½ (hGITR.mFc): 34.2 min; fold activation, T-cell proliferation, 22 nM, non-anchored, donor 1 [2]: 0.7 fold; fold activation, T-cell proliferation, 22 nM, non-anchored, donor 2 [2]: 1 fold; fold activation, T-cell proliferation, 22 nM, non-anchored, donor 3 [2]: 0.9 fold; fold activation, T-cell proliferation, 22 nM, non-anchored, donor 4 [2]: 1 fold; fold activation, T-cell proliferation, 22 nM, non-anchored, mean [2]: 0.9 fold; fold activation, T-cell proliferation, 33 nM, FcgR anchored, donor 1 [3]: 1.2 fold; fold activation, T-cell proliferation, 33 nM, FcgR anchored, donor 2 [3]: 0.8 fold; fold activation, T-cell proliferation, 33 nM, FcgR anchored, donor 3 [3]: 1 fold; fold activation, T-cell proliferation, 33 nM, FcgR anchored, donor 4 [3]: 1.5 fold; fold activation, T-cell proliferation, 33 nM, FcgR anchored, donor 5 [3]: 1.5 fold; fold activation, T-cell proliferation, 33 nM, FcgR anchored, mean [3]: 1.2 fold; Average Signal (RLU) at 100 nM [4]: 8840 RLU; EC50 [4]: 0.6 nM; % Activation, NF-kB-Luc, non-anchored [5]: 20%; % Blocking, NF-kB-Luc, non-anchored [5]: 70%; EC50, hGITR activation, NF-kB-Luc, non-anchored [5]: 1.1 nM; IC50, blocking of hGITRL stimulation, NF-kB-Luc, non-anchored [5]: 1.4 nM"
10 fold,4 fold,4 fold,7 fold,4 fold,11 fold,3 fold,2 fold,5 fold,39.3 nM,0.00507 s⁻¹,129000 M⁻¹ s⁻¹,2.3 min,36.6 nM,0.00935 s⁻¹,255000 M⁻¹ s⁻¹,1.2 min,0.597 nM,0.000719 s⁻¹,1.21e+06 M⁻¹ s⁻¹,"H4H14508P (antibody, human IgG4, V domains shown, human IgG4 (H4H)) VH: QVQLVESGGGVVQPGRSLRLSCAASGLTVSSYVMHWVRQAPGKGLEWVAIIWYDGSNKYYGDSVKGRFTISRDNSKKTLYLQMNSLRAEDTAVYYCARGRPLSSSSSDYYGLDVWGQGTTVTVSS VL: AIQMTQSPSSLSASVGDRVTIICRASQGIRNDLGWYQQKPGKAPNLLIYAASSLQSGVPSRFSGSGSGTDFTLTISSLQPEDFATYYCLQDYNYPWTFGQGTKVEIK","t½ (hGITR.mFc): 16.1 min; fold activation, T-cell proliferation, 22 nM, non-anchored, donor 1 [2]: 0.7 fold; fold activation, T-cell proliferation, 22 nM, non-anchored, donor 2 [2]: 0.9 fold; fold activation, T-cell proliferation, 22 nM, non-anchored, donor 3 [2]: 0.9 fold; fold activation, T-cell proliferation, 22 nM, non-anchored, donor 4 [2]: 1.4 fold; fold activation, T-cell proliferation, 22 nM, non-anchored, mean [2]: 1 fold; fold activation, T-cell proliferation, 33 nM, FcgR anchored, donor 1 [3]: 1 fold; fold activation, T-cell proliferation, 33 nM, FcgR anchored, donor 2 [3]: 0.7 fold; fold activation, T-cell proliferation, 33 nM, FcgR anchored, donor 3 [3]: 1.1 fold; fold activation, T-cell proliferation, 33 nM, FcgR anchored, donor 4 [3]: 1.8 fold; fold activation, T-cell proliferation, 33 nM, FcgR anchored, donor 5 [3]: 1.3 fold; fold activation, T-cell proliferation, 33 nM, FcgR anchored, mean [3]: 1.2 fold; Average Signal (RLU) at 100 nM [4]: 6870 RLU; EC50 [4]: 0.45 nM; % Activation, NF-kB-Luc, non-anchored [5]: 30%; % Blocking, NF-kB-Luc, non-anchored [5]: 40%; EC50, hGITR activation, NF-kB-Luc, non-anchored [5]: 1.2 nM; IC50, blocking of hGITRL stimulation, NF-kB-Luc, non-anchored [5]: 0.9 nM"
3 fold,12 fold,12 fold,15 fold,12 fold,17 fold,11 fold,11 fold,12 fold,41.1 nM,0.00243 s⁻¹,59100 M⁻¹ s⁻¹,4.7 min,43 nM,0.0122 s⁻¹,284000 M⁻¹ s⁻¹,0.9 min,0.335 nM,0.000401 s⁻¹,1.2e+06 M⁻¹ s⁻¹,"H4H14469P (antibody, human IgG4, V domains shown, human IgG4 (H4H)) VH: QVQLVESGGGVVQPGGSLRLSCAVSGFTFSDYGMHWVRQVPGAGLEWVAVIYYEGSNKYYADSVKGRFTISRDNSKNTLYLQMNSLRVEDTSMYFCARGPLLGGNFYSYLMDVWGQGTTVTVSS VL: AIQMTQSPSSLSASVGDRVTITCRASQGIRNGLGWYQQKPGKAPKLLIYTASSLQSGVPSRFSGSGSGTDFTLTISSLQPEDFATYYCLQDYNYPFSFGPGTKVDIK","t½ (hGITR.mFc): 28.8 min; fold activation, T-cell proliferation, 22 nM, non-anchored, donor 1 [2]: 0.9 fold; fold activation, T-cell proliferation, 22 nM, non-anchored, donor 2 [2]: 0.8 fold; fold activation, T-cell proliferation, 22 nM, non-anchored, donor 3 [2]: 1 fold; fold activation, T-cell proliferation, 22 nM, non-anchored, donor 4 [2]: 0.9 fold; fold activation, T-cell proliferation, 22 nM, non-anchored, mean [2]: 0.9 fold; fold activation, T-cell proliferation, 33 nM, FcgR anchored, donor 1 [3]: 0.7 fold; fold activation, T-cell proliferation, 33 nM, FcgR anchored, donor 2 [3]: 1 fold; fold activation, T-cell proliferation, 33 nM, FcgR anchored, donor 3 [3]: 0.9 fold; fold activation, T-cell proliferation, 33 nM, FcgR anchored, donor 4 [3]: 1.5 fold; fold activation, T-cell proliferation, 33 nM, FcgR anchored, donor 5 [3]: 1.5 fold; fold activation, T-cell proliferation, 33 nM, FcgR anchored, mean [3]: 1.1 fold; Average Signal (RLU) at 100 nM [4]: 5230 RLU; EC50 [4]: 0.23 nM; % Activation, NF-kB-Luc, non-anchored [5]: 50%; % Blocking, NF-kB-Luc, non-anchored [5]: 90%; EC50, hGITR activation, NF-kB-Luc, non-anchored [5]: 2.3 nM; IC50, blocking of hGITRL stimulation, NF-kB-Luc, non-anchored [5]: 0.7 nM"
